Assay results from article PMC3234751.

Molecular target: GFP-tagged IQGAP1 lacking IQ domains (IQGAPΔIQ) (UniProt P46940)
Experiment: co-IP

Chain of UniProt P46940 (P46940 whole entry, stated change not applied, the tested form may be a part): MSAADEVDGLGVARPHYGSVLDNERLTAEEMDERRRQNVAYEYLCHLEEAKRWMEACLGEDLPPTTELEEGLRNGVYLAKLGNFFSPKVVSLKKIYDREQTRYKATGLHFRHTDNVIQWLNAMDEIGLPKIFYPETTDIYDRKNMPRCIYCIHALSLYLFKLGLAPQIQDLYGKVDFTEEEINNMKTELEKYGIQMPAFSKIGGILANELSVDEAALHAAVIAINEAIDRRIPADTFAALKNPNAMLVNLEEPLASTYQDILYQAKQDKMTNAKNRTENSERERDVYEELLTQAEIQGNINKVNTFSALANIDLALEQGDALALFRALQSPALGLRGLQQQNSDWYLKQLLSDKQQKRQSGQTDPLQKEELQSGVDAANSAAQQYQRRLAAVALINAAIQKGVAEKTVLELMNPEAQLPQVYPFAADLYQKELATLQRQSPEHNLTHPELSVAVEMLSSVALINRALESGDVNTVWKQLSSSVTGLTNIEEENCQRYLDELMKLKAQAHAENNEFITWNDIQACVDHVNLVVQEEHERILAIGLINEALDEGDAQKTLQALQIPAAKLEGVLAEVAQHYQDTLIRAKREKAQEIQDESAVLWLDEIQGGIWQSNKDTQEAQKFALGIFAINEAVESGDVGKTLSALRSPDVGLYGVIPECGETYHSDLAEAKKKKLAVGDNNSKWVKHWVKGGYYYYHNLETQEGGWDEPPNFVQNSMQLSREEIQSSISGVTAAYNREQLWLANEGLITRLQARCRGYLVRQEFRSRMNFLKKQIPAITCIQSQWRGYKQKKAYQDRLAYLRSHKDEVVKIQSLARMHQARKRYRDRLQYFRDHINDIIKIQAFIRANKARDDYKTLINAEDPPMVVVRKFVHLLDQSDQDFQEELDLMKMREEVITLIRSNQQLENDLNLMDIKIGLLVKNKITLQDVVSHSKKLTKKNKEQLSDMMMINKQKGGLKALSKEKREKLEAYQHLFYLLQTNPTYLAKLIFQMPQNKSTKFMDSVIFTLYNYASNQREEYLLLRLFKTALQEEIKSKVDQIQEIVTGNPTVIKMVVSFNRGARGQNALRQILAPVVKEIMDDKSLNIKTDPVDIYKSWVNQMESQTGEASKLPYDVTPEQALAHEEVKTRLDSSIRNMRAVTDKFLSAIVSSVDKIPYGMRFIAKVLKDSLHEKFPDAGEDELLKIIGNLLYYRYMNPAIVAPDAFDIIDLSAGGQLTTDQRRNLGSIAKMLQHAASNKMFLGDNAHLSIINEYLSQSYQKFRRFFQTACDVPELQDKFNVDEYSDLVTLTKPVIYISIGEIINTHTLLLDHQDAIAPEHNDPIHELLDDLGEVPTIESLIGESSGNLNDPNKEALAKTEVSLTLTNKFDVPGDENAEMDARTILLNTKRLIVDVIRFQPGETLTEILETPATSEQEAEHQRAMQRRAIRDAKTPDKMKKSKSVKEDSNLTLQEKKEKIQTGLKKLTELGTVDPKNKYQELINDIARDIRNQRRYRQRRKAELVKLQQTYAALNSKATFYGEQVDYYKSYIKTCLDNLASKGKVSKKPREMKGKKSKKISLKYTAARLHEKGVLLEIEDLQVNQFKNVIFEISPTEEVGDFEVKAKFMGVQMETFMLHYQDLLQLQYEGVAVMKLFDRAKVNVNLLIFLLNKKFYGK

fold enhancement in binding (densitometry): 3.6 fold
Substance: AKAP220, endogenous in COS cells (natural protein)
